The experiment addresses H3_(1-15)K4me3 peptide with an added C-terminal Tyr (UniProt P68431). As to the kind of experiment: ITC.

Consider one substance from PMC2697266.

For orientation: Kd means the free concentration of one partner at which half of the binding sites on the other are occupied at equilibrium, for simple one-to-one binding. A lower Kd goes with tighter binding. The substance “Recombinant JARID1A_(PHD3) protein used for calorimetry (domain or fragment)” yielded a dissociation constant (Kd) of 750 nM.
